Where a chain is given by its changes, count along the chain named. Each block holds one binder with its values, some of them ahead of it.
How the values were obtained:
[1] = biological target: T1, GST-PTPL1 PDZ domain 2 (Homo sapiens (Human)), Q12923; assay: G assay titration, PDZ 0.5 ug/ml
T1 chain: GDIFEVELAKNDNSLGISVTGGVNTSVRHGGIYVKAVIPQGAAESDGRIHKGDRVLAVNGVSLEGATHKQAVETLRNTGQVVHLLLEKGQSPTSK

[2] = biological target: T2, GST-BAI-1 Associated Protein PDZ domain 3 (Homo sapiens (Human)), Q96QZ7; assay: G assay titration, PDZ 0.5 ug/ml
T2 sequence (Q96QZ7 other isoform, or with tags, fused parts or gaps): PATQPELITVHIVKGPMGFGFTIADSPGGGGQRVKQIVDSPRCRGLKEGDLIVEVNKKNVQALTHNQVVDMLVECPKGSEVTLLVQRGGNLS

[3] = biological target: GST-KIAA807 [GST: P08515]; assay: G' assay; also: key of the grades not given here
Sequence of GST-KIAA807 [GST: P08515] (P08515 whole entry, the tested form may be a part): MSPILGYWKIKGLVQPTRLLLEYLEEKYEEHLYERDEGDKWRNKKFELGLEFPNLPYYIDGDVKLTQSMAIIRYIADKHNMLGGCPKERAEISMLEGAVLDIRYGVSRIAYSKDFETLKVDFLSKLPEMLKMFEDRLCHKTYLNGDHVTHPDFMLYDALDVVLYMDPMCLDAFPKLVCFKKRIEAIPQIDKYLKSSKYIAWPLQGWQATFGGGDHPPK

[4] = biological target: T3, GST-KIAA0807(S) PDZ domain 1 (Homo sapiens (Human)), Q6P0Q8; assay: G' assay; also: key of the grades not given here
T3 chain: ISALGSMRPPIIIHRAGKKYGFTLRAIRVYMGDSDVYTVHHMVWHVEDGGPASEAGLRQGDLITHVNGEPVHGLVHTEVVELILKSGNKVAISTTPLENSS

[5] = biological target: GST-PIST PDZ domain 1 (Mus musculus (Mouse)), Q8BH60; assay: G' assay; also: key of the grades not given here
[6] = biological target: T1, GST-PTPL1 PDZ domain 2 (Homo sapiens …); assay: G' assay; also: key of the grades not given here
[7] = biological target: T4, GST-MINT1 PDZ domain 2 (Mus musculus (Mouse)), B2RUJ5; assay: G' assay; also: key of the grades not given here
T4 chain: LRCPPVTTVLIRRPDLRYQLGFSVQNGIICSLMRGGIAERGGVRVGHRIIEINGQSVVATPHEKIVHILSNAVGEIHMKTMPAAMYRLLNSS

[8] = biological target: T2, GST-BAI-1 Associated Protein PDZ domain …; assay: G' assay; also: key of the grades not given here
[9] = biological target: T5, GST-HEMBA 1003117 PDZ domain 1 (Homo sapiens (Human)), Q96JH8; assay: G' assay; also: key of the grades not given here
T5 chain: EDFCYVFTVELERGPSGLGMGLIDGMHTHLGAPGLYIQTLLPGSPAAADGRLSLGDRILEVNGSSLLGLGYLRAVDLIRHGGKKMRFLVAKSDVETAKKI

[10] = biological target: T6, GST-MINT1 PDZ domains 1, 2, Q02410; assay: G' assay; also: key of the grades not given here
T6 chain: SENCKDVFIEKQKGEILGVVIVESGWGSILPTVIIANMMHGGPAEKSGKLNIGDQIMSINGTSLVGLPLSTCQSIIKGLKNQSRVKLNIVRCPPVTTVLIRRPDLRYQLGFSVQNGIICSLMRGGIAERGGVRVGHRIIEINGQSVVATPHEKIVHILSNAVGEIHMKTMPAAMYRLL

[11] = biological target: T7, GST-KIAA1634 PDZ domain 2 (Homo sapiens (Human)), Q5TCQ9; assay: G' assay; also: key of the grades not given here
T7 chain: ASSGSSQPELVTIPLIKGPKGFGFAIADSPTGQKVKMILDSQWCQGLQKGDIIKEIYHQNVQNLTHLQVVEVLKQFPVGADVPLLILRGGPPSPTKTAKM

[12] = biological target: T8, GST-PTPL1 PDZ domain 4 (Homo sapiens (Human)), Q12923; assay: G' assay; also: key of the grades not given here
T8 chain: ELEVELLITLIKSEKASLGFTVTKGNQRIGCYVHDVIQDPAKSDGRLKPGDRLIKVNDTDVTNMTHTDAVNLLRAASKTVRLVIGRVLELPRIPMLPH

[13] = biological target: GST-KIAA0316 PDZ domain 1 (Homo sapiens (Human)), Q14CM0; assay: G' assay; also: key of the grades not given here
Sequence of GST-KIAA0316 PDZ domain 1 (Homo sapiens (Human)), Q14CM0 (Q14CM0 72-159): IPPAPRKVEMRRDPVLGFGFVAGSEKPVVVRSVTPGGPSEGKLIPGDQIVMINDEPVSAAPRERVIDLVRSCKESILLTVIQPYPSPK

[14] = biological target: T9, GST-FLJ 10324 PDZ domain 1 [GST: P08515]; assay: G' assay; also: key of the grades not given here
T9 chain: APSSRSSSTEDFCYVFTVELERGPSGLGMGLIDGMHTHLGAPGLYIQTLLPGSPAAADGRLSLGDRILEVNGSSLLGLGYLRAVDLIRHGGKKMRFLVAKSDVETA

[15] = biological target: GST-PSD95 PDZ domains 1, 2, 3 (Homo sapiens), P78352; assay: G assay competition vs 20 uM biotin-CLASP-2 20-mer; competitor 50 uM
Sequence of GST-PSD95 PDZ domains 1, 2, 3 (Homo sapiens), P78352 (P78352 62-395): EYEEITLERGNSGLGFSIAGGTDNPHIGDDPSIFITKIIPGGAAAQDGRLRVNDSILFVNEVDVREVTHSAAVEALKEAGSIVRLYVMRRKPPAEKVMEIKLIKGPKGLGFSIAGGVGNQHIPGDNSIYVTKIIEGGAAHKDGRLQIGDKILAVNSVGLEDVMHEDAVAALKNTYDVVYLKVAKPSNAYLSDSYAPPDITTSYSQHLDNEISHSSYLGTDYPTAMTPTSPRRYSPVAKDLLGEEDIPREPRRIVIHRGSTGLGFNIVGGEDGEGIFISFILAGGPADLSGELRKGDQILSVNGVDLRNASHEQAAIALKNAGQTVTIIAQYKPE

[16] = biological target: GST-PSD95 PDZ domains 1, 2, 3 (Homo sapiens), P78352; assay: G assay competition vs 20 uM biotin-CD46 20-mer; competitor 50 uM
[17] = biological target: GST-PSD95 PDZ domains 1, 2, 3 (Homo sapiens), P78352; assay: G assay competition vs 10 uM biotin-KV1.3 20-mer; competitor 50 uM
[18] = biological target: GST-PSD95 PDZ domains 1, 2, 3 (Homo sapiens), P78352; assay: G assay competition vs 10 uM biotin-CD95 20-mer; competitor 50 uM
[19] = biological target: T10, GST-INADL PDZ domain 8 (Homo sapiens (Human)), Q8NI35; assay: G' assay; also: key of the grades not given here
T10 chain: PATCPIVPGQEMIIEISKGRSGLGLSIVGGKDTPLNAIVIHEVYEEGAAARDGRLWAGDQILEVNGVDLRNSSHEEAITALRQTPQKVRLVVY

[20] = biological target: T11, GST-ZO-2 PDZ domain 1 (Homo sapiens (Human)), Q9UDY2; assay: G' assay; also: key of the grades not given here
T11 chain: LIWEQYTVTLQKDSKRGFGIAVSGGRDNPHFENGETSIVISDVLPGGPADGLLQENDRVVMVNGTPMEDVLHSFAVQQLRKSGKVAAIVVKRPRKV

[21] = biological target: T12, GST-Outer Membrane PDZ domain 1 (Homo sapiens (Human)), P57105; assay: G' assay; also: key of the grades not given here
T12 chain: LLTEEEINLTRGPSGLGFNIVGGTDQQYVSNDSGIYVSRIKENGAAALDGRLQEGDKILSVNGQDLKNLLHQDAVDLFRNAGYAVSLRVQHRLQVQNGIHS

[22] = biological target: T13, GST-Shank 1 PDZ domain 1 (Homo sapiens (Human)), Q9UPX8; assay: G' assay; also: key of the grades not given here
T13 chain: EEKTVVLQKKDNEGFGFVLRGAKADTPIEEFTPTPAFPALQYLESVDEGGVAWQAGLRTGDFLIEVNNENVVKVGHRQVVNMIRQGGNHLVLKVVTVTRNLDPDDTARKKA

[23] = biological target: T14, GST-APXL-1 PDZ domain 1 (Homo sapiens (Human)), Q13796; assay: G' assay; also: key of the grades not given here
T14 chain: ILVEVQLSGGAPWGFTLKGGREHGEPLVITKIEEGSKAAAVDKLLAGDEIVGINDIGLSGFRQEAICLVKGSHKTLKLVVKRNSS

[24] = biological target: T15, GST-EZRIN Binding Protein 50 PDZ domain 1 (Homo sapiens (Human)), O14745; assay: G' assay; also: key of the grades not given here
T15 chain: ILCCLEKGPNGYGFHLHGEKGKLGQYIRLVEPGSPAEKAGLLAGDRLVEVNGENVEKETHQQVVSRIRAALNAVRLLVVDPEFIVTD

[25] = biological target: T16, GST-MUPP1 PDZ domain 13 (Homo sapiens (Human)), O75970; assay: G' assay; also: key of the grades not given here
T16 chain: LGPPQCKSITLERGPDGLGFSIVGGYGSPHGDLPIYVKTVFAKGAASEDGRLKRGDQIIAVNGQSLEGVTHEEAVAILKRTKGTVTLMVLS

[26] = biological target: T17, GST-EZRIN Binding Protein 50 PDZ domain 2 (Homo sapiens (Human)), O14745; assay: G' assay; also: key of the grades not given here
T17 chain: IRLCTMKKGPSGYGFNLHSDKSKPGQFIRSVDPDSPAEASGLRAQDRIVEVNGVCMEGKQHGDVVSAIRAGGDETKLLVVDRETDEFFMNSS

[27] = biological target: T18, GST-KIAA1526 PDZ domain 1 (Homo sapiens (Human)), Q9P202; assay: G' assay; also: key of the grades not given here
T18 chain: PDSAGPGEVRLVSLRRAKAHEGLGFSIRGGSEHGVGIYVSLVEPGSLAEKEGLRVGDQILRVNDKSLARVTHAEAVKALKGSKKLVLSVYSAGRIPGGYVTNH

[28] = biological target: T19, GST-PDZK1 PDZ domains 2, 3, 4, Q5T2W1; assay: G' assay; also: key of the grades not given here
T19 chain: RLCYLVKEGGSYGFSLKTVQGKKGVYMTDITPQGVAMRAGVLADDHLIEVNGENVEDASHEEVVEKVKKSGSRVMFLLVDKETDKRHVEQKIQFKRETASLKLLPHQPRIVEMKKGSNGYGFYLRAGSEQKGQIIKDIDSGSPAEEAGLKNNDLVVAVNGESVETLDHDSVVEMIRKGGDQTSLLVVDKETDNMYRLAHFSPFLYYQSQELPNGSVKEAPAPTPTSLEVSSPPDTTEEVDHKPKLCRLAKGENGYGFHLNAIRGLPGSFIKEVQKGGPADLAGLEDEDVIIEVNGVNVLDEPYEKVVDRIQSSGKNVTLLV

[29] = biological target: T20, GST-KIAA0973 PDZ domain 1 (Homo sapiens (Human)), Q9Y2H9; assay: G' assay; also: key of the grades not given here
T20 chain: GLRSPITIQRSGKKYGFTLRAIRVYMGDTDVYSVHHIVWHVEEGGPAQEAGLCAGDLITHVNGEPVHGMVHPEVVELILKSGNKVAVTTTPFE

[30] = biological target: T21, GST-Syntrophin gamma 2 PDZ domain 1 (Homo sapiens (Human)), Q9NY99; assay: G' assay; also: key of the grades not given here
T21 chain: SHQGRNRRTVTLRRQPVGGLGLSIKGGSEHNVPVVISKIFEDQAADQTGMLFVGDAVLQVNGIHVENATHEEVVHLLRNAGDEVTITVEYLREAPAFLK

[31] = biological target: T22, GST-MUPP1 PDZ domain 10 (Homo sapiens (Human)), O75970; assay: G' assay; also: key of the grades not given here
T22 chain: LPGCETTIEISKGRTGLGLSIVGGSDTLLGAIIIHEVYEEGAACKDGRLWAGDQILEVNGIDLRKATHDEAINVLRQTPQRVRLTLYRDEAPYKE

[32] = biological target: T23, GST-Shank 3 PDZ domain 1 (human (hypothetical, computer cloned)), Q9BYB0; assay: G' assay; also: key of the grades not given here
T23 chain: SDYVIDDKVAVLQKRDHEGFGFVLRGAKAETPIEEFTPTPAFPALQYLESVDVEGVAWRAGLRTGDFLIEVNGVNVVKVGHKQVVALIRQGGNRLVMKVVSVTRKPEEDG

[33] = biological target: T24, GST-rat SHANK 3 PDZ domain 1 (rat), Q9JLU4; assay: G' assay; also: key of the grades not given here
T24 chain: T23 chain with V11I, R59K, A86G, G110S

- Kd [1]: 200 nM
- Kd [2]: 2000 nM
- Classification [3]: 1 A450 class
- Classification [4]: 1 A450 class
- Classification [5]: 1 A450 class
- Classification [6]: 5 A450 class
- Classification [7]: 1 A450 class
- Classification [8]: 4 A450 class
- Classification [9]: 1 A450 class
- Classification [10]: 1 A450 class
- Classification [11]: 5 A450 class
- Classification [12]: 2 A450 class
- Classification [13]: 1 A450 class
- Classification [14]: 2 A450 class
Binder: DTLLLTENEGDKTEEQVSYV (modifications not checked) [serotonin receptor 5HT-2B]

- % binding of labelled 20-mer [15]: 85%
- % binding of labelled 20-mer [16]: 90%
- % binding of labelled 20-mer [17]: 82%
- % binding of labelled 20-mer [18]: 80%
Binder: MTSSSSVV (modifications not checked) [CLASP-2 8-mer]

- Classification [3]: 5 A450 class
- Classification [4]: 5 A450 class
- Classification [19]: 1 A450 class
- Classification [5]: 1 A450 class
- Classification [20]: 1 A450 class
- Classification [21]: 1 A450 class
- Classification [22]: 5 A450 class
- Classification [23]: 1 A450 class
- Classification [24]: 5 A450 class
- Classification [25]: 1 A450 class
- Classification [26]: 2 A450 class
- Classification [27]: 1 A450 class
- Classification [7]: 1 A450 class
- Classification [28]: 1 A450 class
- Classification [29]: 2 A450 class
- Classification [30]: 1 A450 class
- Classification [31]: 1 A450 class
- Classification [32]: 5 A450 class
- Classification [14]: 1 A450 class
- Classification [33]: 4 A450 class
Binder: PPATPSPRLALPAHHNATRL (modifications not checked) [Na+/Pi cotransporter 2]

- % binding of labelled 20-mer [15]: 92%
- % binding of labelled 20-mer [16]: 100%
- % binding of labelled 20-mer [17]: 87%
- % binding of labelled 20-mer [18]: 75%
Binder: RNEIQSLV (modifications not checked) [unlabeled 8 amino acid peptide corresponding to the C-terminus of CD95]

Source: patent US20050282743A1, “Molecular interactions in cells” (Arbor Vita Corporation, priority 2001, published 2005)
